Earlier results as cited in article PMC4962041.

Target: ubiquitin (UniProt P0CG48)

yDdi1 UBL, sequence (P40087 1-80): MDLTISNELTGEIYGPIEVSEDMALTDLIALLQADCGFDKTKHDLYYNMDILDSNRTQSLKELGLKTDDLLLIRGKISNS

In the case of yDdi1 UBL (from UniProt P40087), the Kd is given as 45 µM.
